{"source": "paper PMC10716449", "biological_target": "T1, ybbR-CENP-B-His6 (full length, JF549-labelled for smTIRF) (UniProt P07199)", "T1 sequence": "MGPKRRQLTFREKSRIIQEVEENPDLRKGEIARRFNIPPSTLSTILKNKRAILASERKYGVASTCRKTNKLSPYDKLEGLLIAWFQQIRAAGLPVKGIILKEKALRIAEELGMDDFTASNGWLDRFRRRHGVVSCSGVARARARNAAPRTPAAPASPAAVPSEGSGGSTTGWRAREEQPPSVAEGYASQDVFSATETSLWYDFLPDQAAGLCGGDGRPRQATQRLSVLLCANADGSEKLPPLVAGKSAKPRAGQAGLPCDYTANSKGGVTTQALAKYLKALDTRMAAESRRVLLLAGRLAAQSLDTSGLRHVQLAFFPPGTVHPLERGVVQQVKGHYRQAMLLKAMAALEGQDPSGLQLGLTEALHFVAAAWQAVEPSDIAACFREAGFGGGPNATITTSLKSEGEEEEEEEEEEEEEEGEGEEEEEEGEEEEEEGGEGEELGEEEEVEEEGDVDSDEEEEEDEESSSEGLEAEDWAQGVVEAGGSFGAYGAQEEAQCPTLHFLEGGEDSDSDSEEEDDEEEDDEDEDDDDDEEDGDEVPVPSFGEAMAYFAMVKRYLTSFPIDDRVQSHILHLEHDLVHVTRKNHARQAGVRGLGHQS", "assay": "single-molecule colocalization (smTIRF)", "settings": "smTIRF: about 5 nM CENP-B, 150 mM salt, EMSA: 10 mM Tris pH 7.5, 130 mM KCl, 3.2% glucose, 30 min at room temperature"}
{"substance": "CENP-A 12x601 chromatin fiber DA3BB (1 B-Box at N6)", "values": [{"measurement": "binding signal (s (tau off,2))", "setting": "150 mM KCl, tau_off,1 4.9 s (67%), A2 33%, amino-C6-dT, 5% PAGE in 0.25x …", "value": 51.4}]}
{"substance": "GATCGGTCTCATAGCCTGGAGAATCCCGGTGCCGAGGCCGCTCAATTGGTCGTAGACAGCTCTAGCACCGCTTAAACGCACGTACGCGCTGTCCCCCGCGTTTTAACCGCCAAGGGGATTACTCCCTAGTCTCCAGGCACGTGTCAGATATATACATCCTGTCACACTGTGGATC (double strand) [H3 1x601 mononucleosome (no B-Box)]", "values": [{"measurement": "binding signal (s (tau off,2))", "setting": "tau_off,1 3.4 s (51%), A2 49%, amino-C6-dT on reverse strand, 5% PAGE in 0.25x TBE", "value": 15.2}]}
{"substance": "GATCGGTCTCATAGCCTTCGTTGGAAACGGGAGAATCCCGGTGCCGAGGCCGCTCAATTGGTCGTAGACAGCTCTAGCACCGCTTAAACGCACGTACGCGCTGTCCCCCGCGTTTTAACCGCCAAGGGGATTACTCCCTAGTCTCCAGGCACGTGTCAGATATATACATCCTGTCACACTGTGGATC (double strand) [CENP-A 1x601 BB mononucleosome]", "values": [{"measurement": "binding signal (s (tau off,2))", "setting": "tau_off,1 6.8 s (51%), A2 49%, amino-C6-dT on reverse strand (smTIRF), 5% PAGE in 0.25x TBE", "value": 50.2}]}
{"substance": "GATCGGTCTCATAGCCTTCGTTGGAAACGGGAGAATCCCGGTGCCGAGGCCGCTCAATTGGTCGTAGACAGCTCTAGCACCGCTTAAACGCACGTACGCGCTGTCCCCCGCGTTTTAACCGCCAAGGGGATTACTCCCTAGTCTCCAGGCACGTGTCAGATATATACATCCTGTCACACTGTGGATC (double strand) [H3 1x601 BB mononucleosome]", "values": [{"measurement": "binding signal (s (tau off,2))", "setting": "tau_off,1 6.87 s (66%), A2 34%, amino-C6-dT on reverse strand, 5% PAGE in 0.25x TBE", "value": 48.3}]}
{"substance": "H3 12x601 chromatin fiber DA3BB (1 B-Box at N6)", "values": [{"measurement": "binding signal (s (tau off,2))", "setting": "150 mM KCl, tau_off,1 3.6 s (47%), A2 52%, amino-C6-dT, 5% PAGE in 0.25x …", "value": 17.6}]}
